According to patent US20020182673A1:

Columns and labels:
[1] = target: recombinant IL-17E (baculovirus, His-tag removed by thrombin) (human); experiment: SPR (BIAcore 1000), IL-17E immobilised, IL-17RH1 ECD in solution, 1:1 model
[2] = target: IL-17RH1 (PRO5801) ECD (residues 1-275), baculovirus, His-tag removed (human); experiment: SPR (BIAcore 1000), IL-17RH1 ECD immobilised, IL-17E in solution, 1:1 model

Row | Substance | Kd [1] | koff [1] | kon [1] | Kd [2] | koff [2] | kon [2]
1 | IL-17RH1 (PRO5801) ECD (residues 1-275), baculovirus, His-tag removed (receptor) | 1.1 nM | 0.0007 s⁻¹ | 670000 M⁻¹ s⁻¹ |  |  | 
2 | recombinant IL-17E (baculovirus, His-tag removed by thrombin) (ligand) |  |  |  | 1.4 nM | 0.00062 s⁻¹ | 430000 M⁻¹ s⁻¹
